Data: the Human Domainome abundance scans (Beltran et al. 2025)
± gives the uncertainty stated by the source.

B1: Serine/threonine-protein kinase A-Raf, residues 21 to 89; numbered along this chain, P10398 (parent)
chain: VKVYLPNKQRTVVTVRDGMSVYDSLDKALKVRGLNQDCCVVYRLIKGRKTVTAWDTAIAPLDGEELIVE

Variants of: B1
Assay: abundance fitness (aPCA) (normalised: wild type 0, dead -1); higher = more abundant; growth selection in yeast, the domain comes from the species named
Details: Homo sapiens

| Variant | abundance fitness |
| --- | --- |
| VKVYLPNKQRTVVTVRDGMSVYDSLDKALKVRGLNQDCCVVYRLIKGRETVTAWDTAIAPLDGEELIVE [K49E] | -0.847 ± 0.2 |
| VKVYLPNKQRTVVTVRDGMSVYDSLDKALKVRGLNQDCCVVYRLIKGRKTVTAWDTAINPLDGEELIVE [A59N] | -0.366 ± 0.21 |
| VKVYLPNKQRTVVTVRDGMSVYDSLDKALKVRGLNYDCCVVYRLIKGRKTVTAWDTAIAPLDGEELIVE [Q36Y] | -0.169 ± 0.17 |
| VKVYLPNKQRTVVTVRDGMSVYDSLDKALKVRGLNRDCCVVYRLIKGRKTVTAWDTAIAPLDGEELIVE [Q36R] | 0.058 ± 0.083 |
| VKVYLPNKQRTVVTVRDGMSVYDSLDKALKVRGLNSDCCVVYRLIKGRKTVTAWDTAIAPLDGEELIVE [Q36S] | -0.178 ± 0.072 |
| VKVYLPNKQRTVVTVRDGMSVYDSLDKALKVRGLNLDCCVVYRLIKGRKTVTAWDTAIAPLDGEELIVE [Q36L] | -0.335 ± 0.072 |
| VKVYLPNKQRTVVTVRDGMSVYDSLDKALKVRGLNIDCCVVYRLIKGRKTVTAWDTAIAPLDGEELIVE [Q36I] | -0.043 ± 0.12 |
| VKVYLPNKQRTVVTVRDGMSVYDSLDKALKVRGLNQDCCVVYRLIKGRKTVTAWDTAIAPLDGEDLIVE [E65D] | -0.136 ± 0.081 |
| VKVYLPNKQRTVVTVRDGMSVYDSLDKELKVRGLNQDCCVVYRLIKGRKTVTAWDTAIAPLDGEELIVE [A28E] | -0.195 ± 0.13 |
| VKVYLPNKQRTAVTVRDGMSVYDSLDKALKVRGLNQDCCVVYRLIKGRKTVTAWDTAIAPLDGEELIVE [V12A] | -0.503 ± 0.077 |
| VKVYLPNKQRTEVTVRDGMSVYDSLDKALKVRGLNQDCCVVYRLIKGRKTVTAWDTAIAPLDGEELIVE [V12E] | -0.066 ± 0.033 |
| VKVYLPNKQRTVVTVRDGMSVYDSLDKALKVRGLNQDCCVVYRLIKGRKTVTAWDTAKAPLDGEELIVE [I58K] | -0.86 ± 0.21 |
| VKVYLPNKQRTVVTVRDGMSVYDSLDKALKVRGLNQDCCVVFRLIKGRKTVTAWDTAIAPLDGEELIVE [Y42F] | -0.004 ± 0.069 |
| VKVYLPNKQRTVVTVRDGMSVYDSLDKALKVRGLNQDCCVVTRLIKGRKTVTAWDTAIAPLDGEELIVE [Y42T] | -0.561 ± 0.09 |
| VKVYLPNKQRTVVTVRDGMSVYDSLDKALKVRGLNQDCSVVYRLIKGRKTVTAWDTAIAPLDGEELIVE [C39S] | -0.585 ± 0.11 |
| VKVYLPNKQRTVVHVRDGMSVYDSLDKALKVRGLNQDCCVVYRLIKGRKTVTAWDTAIAPLDGEELIVE [T14H] | -0.213 ± 0.32 |
| VKVYLPNKQRTVVCVRDGMSVYDSLDKALKVRGLNQDCCVVYRLIKGRKTVTAWDTAIAPLDGEELIVE [T14C] | -0.251 ± 0.087 |
| VKVYLPNKQRTVVTVRDGMSVYDSLDKALKVRGLNQDCCVVYRLIWGRKTVTAWDTAIAPLDGEELIVE [K46W] | -0.667 ± 0.093 |
| VKVYLPNKQRTVVTVRDGYSVYDSLDKALKVRGLNQDCCVVYRLIKGRKTVTAWDTAIAPLDGEELIVE [M19Y] | -0.352 ± 0.18 |
| VKVYLPNRQRTVVTVRDGMSVYDSLDKALKVRGLNQDCCVVYRLIKGRKTVTAWDTAIAPLDGEELIVE [K8R] | -0.005 ± 0.04 |

| Variant | abundance fitness |
| --- | --- |
| VKVYLPNKQRTVVTVRDGMSVYDSLDKALKVRGLNQDCCVVYRLIKGRKTVTAWDTAIAPLSGEELIVE [D62S] | 0.036 ± 0.058 |
| VKVYLPNKQRTVVTVRDGMSVYDSLDKALKVRGLNQDCCVVYRLIKGRKTVTAWDTAIAPLAGEELIVE [D62A] | 0.004 ± 0.064 |
| VKVYLPNKQRTVVTVRDGMSVYDSLDKALKVRGLNQDCCVVYRLIKGRKTVTKWDTAIAPLDGEELIVE [A53K] | -0.079 ± 0.06 |
| VKVYLPNKQRTVVTVLDGMSVYDSLDKALKVRGLNQDCCVVYRLIKGRKTVTAWDTAIAPLDGEELIVE [R16L] | -0.072 ± 0.042 |
| VKVYLPNKQRTVVTVRDGMSVYDSLDKALKVRGLNQDCCVVYRLIKGRKTVTAWDTAIAPLDREELIVE [G63R] | -0.799 ± 0.073 |
| VKVYLPNKQRTVVTVRDGMSVYDSLDKALKVRGLNQDCCVVYRLIKGRKTVTAWDTAIAPLDVEELIVE [G63V] | -0.097 ± 0.06 |
| VKVYLPNKQRTVVTVRDGMSVYDSLDKALKVRGLNQDCCVVYRLIKGRKTVTAWDTAIAPLDPEELIVE [G63P] | -0.533 ± 0.11 |
| VKVYLPNKQRTVVTVRDGMSVYDSLDKALKVRGLNQDCCVVYRLIKGRKTVTAWDTAIAPLDTEELIVE [G63T] | -0.128 ± 0.084 |
| VKVWLPNKQRTVVTVRDGMSVYDSLDKALKVRGLNQDCCVVYRLIKGRKTVTAWDTAIAPLDGEELIVE [Y4W] | -0.045 ± 0.05 |
| VKVYLPNKQRTVVTVRDGMSVYDDLDKALKVRGLNQDCCVVYRLIKGRKTVTAWDTAIAPLDGEELIVE [S24D] | -0.887 ± 0.076 |
| VKVYLPNKQRTVVTVRDGMSVYDSLDKALKVRGLNQDCCVVYRLIKGRKTVFAWDTAIAPLDGEELIVE [T52F] | -0.708 ± 0.29 |
| VKVYLPNKQRTVVTVRDGMSVYDSLDKALKVRGLNQDCCVVYRLIKGRKTVDAWDTAIAPLDGEELIVE [T52D] | -0.978 ± 0.26 |
| VKVYLPNKQRTVVTVRDGMSVYDSLDKALKVRGCNQDCCVVYRLIKGRKTVTAWDTAIAPLDGEELIVE [L34C] | -0.644 ± 0.13 |
| VKVYLPNKQRTVVTVRDGMSVYDSLDKALKVRGMNQDCCVVYRLIKGRKTVTAWDTAIAPLDGEELIVE [L34M] | -0.135 ± 0.059 |
| VKVYLPNKQRSVVTVRDGMSVYDSLDKALKVRGLNQDCCVVYRLIKGRKTVTAWDTAIAPLDGEELIVE [T11S] | -0.582 ± 0.066 |
| VKVYLPNKQRTVVTVRDGMSVYDSLDKALKVRGLNQDCCVVYRLIKGRKTVTAWDTAIAPTDGEELIVE [L61T] | -0.23 ± 0.097 |
| VKVYLPNKQRTVVTVRDGMSVYDSLDKALKVRGLNQDCCVVYRLIKGRKTVTAWDTAIAPGDGEELIVE [L61G] | -0.176 ± 0.048 |
| VKVYLPNKQRTVVTVRDGMSVYDSLDKALKVRGLNQDCCVVYRLIKGRKTVTAWDTAIAPKDGEELIVE [L61K] | -0.142 ± 0.066 |
| VKVYLPNKQRTVVTVRDGMSVYDSLDKALKVRGLNQDCCVVYRLSKGRKTVTAWDTAIAPLDGEELIVE [I45S] | -0.087 ± 0.071 |
